What was measured:
[1] = target: T1, anti-human Kallikrein 3/PSA antibody (R&D systems); assay: SPR (BIAcore); protein G variant layer on gold thin film, anti-PSA antibody 0.5 ug/ml injected
T1 construct: also called antibody against PSA
Description: Then, antigens (Recombinant Human kallikrein 3/PSA, 0.5 μg/ml) were reacted with the antibodies. As a result, the change in the surface plasmon resonance signals of the untagged recombinant protein increased by 7 RU, the same change of the recombinant protein tagged with one cysteine residue increased by 49 RU, the same change of the recombinant protein tagged with two cysteine residues increased by 41 RU, and the same change of the recombinant protein tagged with three cysteine residues increased by 74 RU.
A gold thin film chip was treated with a mixed solution (65° C.) of 95% sulfuric acid and 30% aqueous hydrogen peroxide (volume ratio 3:1) for 30 minutes, and then the chip was washed sequentially with double distilled water, ethanol and double distilled water. Subsequently, the chip was dried with nitrogen gas and mounted on a BIA-core surface plasmon resonance sensor. 150 μl each of 200 μg/ml solutions of recombinant proteins tagged with one, two and three cysteine residues, respectively, and of an untagged recombinant protein (control) were introduced to the gold thin film surface of the mounted chip at a flow rate of 5 μl/min, so as to immobilize the proteins. After reacting the gold thin film surface and the aforementioned proteins, 100 μl of BSA (3 mg/ml) was introduced at a flow rate of 5 μl/min to prevent non-specific reactions. Subsequently, 100 μl of an antibody (0.5 μg/ml, anti-human Kallikrein 3/PSA antibody, R&D systems) was introduced at a flow rate of 5 μl/min, and the biosensor with immobilized antibody and 50 μl of an antigen (0.5 μg/ml, Recombinant Human Kallikrein 3/PSA) were allowed to react. Then, changes in the plasmon resonance signal was detected (FIG. 8).

[2] = target: T2, streptavidin-Cy3 from Streptomyces avidinii (S6420 SIGMA-ALDRICH) (Streptomyces avidinii, UniProt P22629 37-163, limits assumed, Cy3 label); assay: microarray on maleimide glass carrying the protein G variant, fluorescence scanner
T2 construct: Control protein of the microarray experiment; also called control
Description: A glass surface was immersed in a piranha solution (sulfuric acid:hydrogen peroxide, 3:1 v/v) and allowed to react in an oven at 90° C. for 20 minutes. After the reaction, the glass surface was washed with water and ethanol, and then was immersed in ethanol containing 1% APTS ((3-Aminopropyl)trimethoxysilane, 09326, SIGMA-ALDRICH) for 15 to 20 minutes to react, so as to provide an aminated surface. After completion of the reaction, the glass surface was washed with ethanol, and subsequently heated in an oven at 100° C. until the time of use. The prepared aminated surface was immersed in a 10 mM solution of BMPS (N-[b-Maleimidopropyloxy]succinimide ester, 22298, PIERCE, USA) dissolved in DMSO (dimethyl sulfoxide, D2650, SIGMA-ALDRICH) to react for about 30 minutes. The maleimide groups provided on the final glass surface, which groups would be covalently bonded to SH groups, were reacted with Streptococcal protein G variants tagged with one, two or three cysteine residues on the glass surface to immobilize the protein. On the surface where a series of Streptococcal protein G variants were immobilized, an antibody labeled with a fluorescent labeling substance, monoclonal anti-biotin Cy3 (C5585, SIGMA-ALDRICH), and a control, streptavidin-Cy3 (streptavidin-Cy3 from Streptomyces avidinii, S6420 SIGMA-ALDRICH) were arranged into an array using a microarrayer, and then the degree of specific protein binding and the effect of non-specific binding were measured using a fluorescence scanner. As a result, no fluorescent signal of Streptavidin-Cy3 (1 mg/ml) was detected, and since the fluorescent signal increased with an increase in the concentration of the antibody, Monoclonal anti-biotin Cy3, it was confirmed that the antibody reactions with Streptococcal protein G variants tagged with one, two and three cysteine residues were specifically achieved. Also, when the antibody was reacted after allowing the Streptococcal protein G variants to react at the same concentration, the reaction occurred at a low concentration of the antibody with a high binding power. […]

human IgG (Sigma) = target: T3, human IgG (Sigma) (human); assay: SPR (BIAcore); protein G variant layer on gold thin film, human IgG 100 ug/ml injected
T3 construct: also called human antibody; antibody (100 µg/ml, human IgG, Sigma)
Description: A gold thin film chip was treated with a mixed solution (65° C.) of 95% sulfuric acid and 30% aqueous hydrogen peroxide (volume ratio 3:1) for 30 minutes, and then the chip was washed sequentially with double distilled water, ethanol and double distilled water. Subsequently, the chip was dried with nitrogen gas and mounted on a BIA-core surface plasmon resonance sensor. 150 μl each of 200 μg/ml solutions of recombinant proteins tagged with one, two and three cysteine residues, respectively, and of an untagged recombinant protein were introduced to the gold thin film surface of the mounted chip at a flow rate of 5 μl/min, so as to immobilize the proteins. After reacting the gold thin film surface and the aforementioned proteins, 100 μl of BSA (3 mg/ml) was introduced at a flow rate of 5 μl/min to prevent non-specific reactions. Subsequently, 100 μl of an antibody (100 μg/ml, human IgG, Sigma) was introduced at a flow rate of 5 μl/min to produce a biosensor in which protein G variant and the antibody were immobilized on a gold thin film, and the changes in the plasmon resonance signals were measured (FIG. 5).

Row | Binder | change in surface plasmon resonance signal [1] [RU] | binding result [2] | change in surface plasmon resonance signal (human IgG (Sigma)) [RU] | fold increase of SPR signal change against the untagged recombinant protein (human IgG (Sigma)) [times]
1 | Streptococcal protein G variant tagged with one cysteine residue at the N-terminus (other, Immobilised by its thiol group on gold film, gold nano-particles or maleimide glass; also called cys1-G; protein produced from plasmid pET-cys1-L-proteinG) MCDDDDKLKGETTTEAVDAATAEKVFKQYANDNGVDGEWTYDDATKTFTVTETYKLVIDGKTLKGETTTKAVDAETAEKAFKQYADDDGVDGVWTYDDATKTFTVTEHHHHHH | 472 | no binding (tested: 1 mg/ml) | 4000 | ~4
2 | Streptococcal protein G variant tagged with three cysteine residues at the N-terminus (other, Immobilised by its thiol groups on gold film, gold nano-particles or maleimide glass; also called cys3-G; protein produced from plasmid pET-cys3-L-proteinG) MCCCDDDDKLKGETTTEAVDAATAEKVFKQYANDNGVDGEWTYDDATKTFTVTETYKLVIDGKTLKGETTTKAVDAETAEKAFKQYADDDGVDGVWTYDDATKTFTVTEHHHHHH | 491 | no binding (tested: 1 mg/ml) | 4800 | ~4.8
3 | Streptococcal protein G variant tagged with two cysteine residues at the N-terminus (other, Immobilised by its thiol groups on gold film, gold nano-particles or maleimide glass; also called cys2-G; protein produced from plasmid pET-cys2-L-proteinG) MCCDDDDKLKGETTTEAVDAATAEKVFKQYANDNGVDGEWTYDDATKTFTVTETYKLVIDGKTLKGETTTKAVDAETAEKAFKQYADDDGVDGVWTYDDATKTFTVTEHHHHHH | 376 | no binding (tested: 1 mg/ml) | 3200 | ~3.2

From patent publication US20100173430A1 (KOREAN RESEARCH INSTITUTE OF BIOSCIENCE AND BIOTECHNOLOGY, published 2010)
